Values quoted from earlier work in paper PMC6368066 (Neuromuscular disorders : NMD, 2018).
Where no end group is shown, it is not given here.

Columns and labels:
Piezo 1 = Piezo 1 (UniProt E2JF22); experiment: outside-out patch clamp
mdx muscles = mdx muscles in vitro, 10 μM
dystrophin = conditions: phase III trials, over 180 weeks

Chain of UniProt E2JF22 (E2JF22 whole entry): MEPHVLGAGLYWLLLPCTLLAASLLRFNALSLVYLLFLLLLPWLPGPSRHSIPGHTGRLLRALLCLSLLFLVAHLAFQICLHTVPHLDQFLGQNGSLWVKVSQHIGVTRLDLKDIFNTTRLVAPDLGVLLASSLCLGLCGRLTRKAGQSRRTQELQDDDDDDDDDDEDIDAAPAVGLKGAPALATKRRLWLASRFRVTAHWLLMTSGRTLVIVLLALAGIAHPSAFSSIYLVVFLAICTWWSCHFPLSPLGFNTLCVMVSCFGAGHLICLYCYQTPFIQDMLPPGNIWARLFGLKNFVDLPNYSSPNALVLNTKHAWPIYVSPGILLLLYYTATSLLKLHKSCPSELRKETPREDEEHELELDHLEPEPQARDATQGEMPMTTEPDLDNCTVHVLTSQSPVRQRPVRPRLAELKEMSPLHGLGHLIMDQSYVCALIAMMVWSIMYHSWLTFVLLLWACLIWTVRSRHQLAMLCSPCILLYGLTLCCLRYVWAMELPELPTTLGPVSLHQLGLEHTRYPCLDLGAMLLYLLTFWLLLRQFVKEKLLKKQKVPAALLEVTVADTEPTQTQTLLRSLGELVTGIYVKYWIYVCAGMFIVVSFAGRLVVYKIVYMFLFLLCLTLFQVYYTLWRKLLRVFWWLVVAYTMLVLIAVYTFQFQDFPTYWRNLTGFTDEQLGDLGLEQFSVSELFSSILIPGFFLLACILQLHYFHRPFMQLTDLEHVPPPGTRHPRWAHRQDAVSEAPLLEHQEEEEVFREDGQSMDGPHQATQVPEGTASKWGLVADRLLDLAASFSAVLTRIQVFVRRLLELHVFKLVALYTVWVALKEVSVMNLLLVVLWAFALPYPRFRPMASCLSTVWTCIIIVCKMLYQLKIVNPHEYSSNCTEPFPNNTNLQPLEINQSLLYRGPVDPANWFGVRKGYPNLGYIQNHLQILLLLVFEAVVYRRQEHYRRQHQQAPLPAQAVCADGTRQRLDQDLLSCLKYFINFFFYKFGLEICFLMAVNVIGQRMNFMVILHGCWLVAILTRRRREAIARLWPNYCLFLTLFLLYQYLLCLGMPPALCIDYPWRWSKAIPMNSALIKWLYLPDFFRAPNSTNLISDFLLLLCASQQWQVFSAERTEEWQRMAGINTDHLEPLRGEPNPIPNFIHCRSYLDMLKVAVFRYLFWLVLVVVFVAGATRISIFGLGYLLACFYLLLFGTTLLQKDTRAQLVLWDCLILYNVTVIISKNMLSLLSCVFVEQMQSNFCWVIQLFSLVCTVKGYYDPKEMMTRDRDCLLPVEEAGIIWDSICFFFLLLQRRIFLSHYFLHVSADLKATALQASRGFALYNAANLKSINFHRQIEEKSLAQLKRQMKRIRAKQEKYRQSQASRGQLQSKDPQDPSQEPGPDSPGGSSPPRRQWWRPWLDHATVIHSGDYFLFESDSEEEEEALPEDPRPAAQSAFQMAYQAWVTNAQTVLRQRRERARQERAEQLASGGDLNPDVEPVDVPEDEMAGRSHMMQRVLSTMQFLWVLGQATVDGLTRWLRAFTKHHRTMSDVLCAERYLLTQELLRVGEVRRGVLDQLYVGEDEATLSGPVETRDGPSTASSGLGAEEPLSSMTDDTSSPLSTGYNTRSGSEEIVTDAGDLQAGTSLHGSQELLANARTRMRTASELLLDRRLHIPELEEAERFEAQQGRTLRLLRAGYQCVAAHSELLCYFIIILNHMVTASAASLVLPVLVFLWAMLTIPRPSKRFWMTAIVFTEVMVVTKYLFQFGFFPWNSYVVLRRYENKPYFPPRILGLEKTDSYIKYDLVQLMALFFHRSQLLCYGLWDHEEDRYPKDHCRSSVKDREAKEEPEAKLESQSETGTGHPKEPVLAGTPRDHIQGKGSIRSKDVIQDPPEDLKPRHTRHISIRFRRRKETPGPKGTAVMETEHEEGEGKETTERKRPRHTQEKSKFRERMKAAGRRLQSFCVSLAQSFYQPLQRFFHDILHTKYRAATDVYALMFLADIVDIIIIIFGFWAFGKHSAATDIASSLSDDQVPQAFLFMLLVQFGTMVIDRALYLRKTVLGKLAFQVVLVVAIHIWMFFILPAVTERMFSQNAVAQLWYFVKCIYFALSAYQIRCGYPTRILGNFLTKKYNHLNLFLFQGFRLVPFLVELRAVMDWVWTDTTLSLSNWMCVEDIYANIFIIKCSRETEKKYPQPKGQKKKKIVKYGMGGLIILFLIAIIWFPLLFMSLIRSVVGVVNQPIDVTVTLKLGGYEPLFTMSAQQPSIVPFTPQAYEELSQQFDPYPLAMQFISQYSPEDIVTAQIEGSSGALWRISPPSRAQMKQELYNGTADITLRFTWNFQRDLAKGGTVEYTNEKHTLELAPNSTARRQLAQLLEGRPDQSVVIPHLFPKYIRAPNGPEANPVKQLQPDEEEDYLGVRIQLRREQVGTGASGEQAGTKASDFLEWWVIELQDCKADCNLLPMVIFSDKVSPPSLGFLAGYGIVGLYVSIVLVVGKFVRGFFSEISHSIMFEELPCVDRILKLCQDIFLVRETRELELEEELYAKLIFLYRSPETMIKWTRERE

## GsMTx4 (from UniProt Q7YT39)
Piezo 1
  Kd: 500 nM

## GsMTx4: 34 amino acid peptide that selectively inhibits nonselective cationic MSCs (GCLEFWWKCNPNDDKCCRPKLKCSKLFKLCNFSF; ends and bridges not checked; cysteine pairing not given here; UniProt Q7YT39 47-80, looked up)
Mdx muscles
  contraction-induced dye accumulation: reduced contraction-induced dye accumulation

## eteplirsen
dystrophin
  dystrophin levels: ~ 1 % of normal dystrophin levels

## glucagon
other
  serum half-life: 1 to 2 min
